From PMC4215112 (2014) come the findings set out here.

Sequences and labels used below:
B1: M0418 scFv-Fcε fusion protein [human] / Bet v 1.0101 peptide I56 to D69 [modified: biotin at the N-terminus, before the additional glycine; biotin at the N-terminus, before the additional glycine] [birch] (parent complex)
chain 1: QVQLVQSGAEVKKPGESLKISCKGSEYSFPNYWIAWVRQMPGKGLEWMGMIYPGDSDTRYSPSFQGQVNISADKSSRTAFLEWSSLKASDSATYFCARLGGQLWNSYYYYYYMDVWGKGTTVTVSSGGGGSGGGGSGGGGSSYELTQPPSASGTPGQRVTISCSGSSSNIGGNTVNWYQQVPGTAPRLLIYKNNQRPSGVPDRFSGSKSGTSASLAISGLRSEDEADYYCEAWDGGLRGGVFGGGTKLTVLGDYKDDDDKAAA
chain 2: GISFPEGFPFKYVKDG

Variants of B1 are the subject of the assay. The experiment in a line: ELISA; parent: 3.4; read off a plot.
As for chain 2 GISFSEGFPFKYVKDG [chain 2 P5S], the response was ~0.17 Absorbance (450 nm).

As to chain 2 GISFPEGFPFRYVKDG [chain 2 K11R], the response was ~0.22 Absorbance (450 nm). Take chain 2 GISFPEGFPFEYVKDG [chain 2 K11E]: the response was ~2 Absorbance (450 nm). Next, chain 2 GISFPEGSPFKYVKDG [chain 2 F8S]: ~0.22 Absorbance (450 nm). Take chain 2 GISFPEGIPFKYVKDG [chain 2 F8I]: the response was ~2.8 Absorbance (450 nm). As for chain 2 GISFPEGLPFKYVKDG [chain 2 F8L], the figure is ~0.2 Absorbance (450 nm); as for chain 2 GISFPEGFPFKYVKEG [chain 2 D15E], ~3.4 Absorbance (450 nm). As for chain 2 GINFPEGFPFKYVKDG [chain 2 S3N], the figure is ~3.4 Absorbance (450 nm). Next, chain 2 GITFPEGFPFKYVKDG [chain 2 S3T]: ~3.4 Absorbance (450 nm). In the case of chain 2 GISFPKGFPFKYVKDG [chain 2 E6K], the response is ~3.4 Absorbance (450 nm). Next, chain 2 GISFPEGFPVKYVKDG [chain 2 F10V]: ~3.4 Absorbance (450 nm).
